One data set concerns the target T1, NtZFP8 (Nicotiana tabacum, UniProt A0A1S4DEM8 1-256).
T1 sequence: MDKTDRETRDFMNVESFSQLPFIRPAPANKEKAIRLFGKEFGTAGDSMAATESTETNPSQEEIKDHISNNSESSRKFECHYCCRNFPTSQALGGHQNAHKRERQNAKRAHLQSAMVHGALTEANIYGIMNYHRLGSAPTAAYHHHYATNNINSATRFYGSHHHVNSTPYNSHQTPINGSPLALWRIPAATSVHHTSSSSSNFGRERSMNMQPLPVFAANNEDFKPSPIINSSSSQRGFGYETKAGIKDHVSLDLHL
The experiment in a line: EMSA.

Another data set concerns the target T2, AmMIXTA (Antirrhinum majus, UniProt Q38739 1-321).
T2 sequence: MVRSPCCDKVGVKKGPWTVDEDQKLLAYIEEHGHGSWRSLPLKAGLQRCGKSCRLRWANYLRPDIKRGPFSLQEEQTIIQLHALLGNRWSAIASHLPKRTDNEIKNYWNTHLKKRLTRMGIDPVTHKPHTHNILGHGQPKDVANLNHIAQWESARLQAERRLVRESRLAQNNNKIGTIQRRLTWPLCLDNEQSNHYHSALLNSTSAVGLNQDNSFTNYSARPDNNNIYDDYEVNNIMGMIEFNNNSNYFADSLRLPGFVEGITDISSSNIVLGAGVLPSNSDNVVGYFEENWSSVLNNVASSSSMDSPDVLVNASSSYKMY
The experiment in a line: EMSA. (In general: In EMSA bound probe runs differently from free probe, usually more slowly.)

B1: ZFP8_EMSA_Probe (dsDNA)
DNA 1: AGACGGATCCATTGCAATAAGAAGAAGAAGATCCTGTAGGAATTCGGA
DNA 2: TCCGAATTCCTACAGGATCTTCTTCTTCTTATTGCAATGGATCCGTCT
For the molecule B1, in the data set with NtZFP8, the binding result was “binds”.

B2: MIXTA_EMSA_Probe (dsDNA)
DNA 1: AGACGGATCCATTGCAATAGGTGGTGGTGGATCCTGTAGGAATTCGGA
DNA 2: TCCGAATTCCTACAGGATCCACCACCACCTATTGCAATGGATCCGTCT
Regarding B2, in the data set with AmMIXTA, the binding result is “binds”.

Values taken from article PMC12528321.
